Source: patent publication US20220298218A1 (ANTAG THERAPEUTICS, published 2022)
*1 amine or outer side, *2 acyl side, *3 side chain or, on linkers, in order; H or OH if unused. Where no end group is shown, it is not given here. Side-chain parts run from the residue outwards. The star is where a group is joined. C18 diacid = O=C(O)CCCCCCCCCCCCCCCCC(=O)*; γGlu = O=C(O)[C@H](CCC(=O)[*:2])N[*:1]; AEEA = NCCOCCOCC(=O)O

B1: AT562 (peptide)
peptide: TFISDYSK([AEEA-AEEA-γGlu-C18 diacid])AMDKIHQQDFVNWLLAQKGKKNDW-OH
modifications: N-terminus assumed
SMILES: CC[C@H](C)[C@H](NC(=O)[C@H](CCCCN)NC(=O)[C@H](CC(=O)O)NC(=O)[C@H](CCSC)NC(=O)[C@H](C)NC(=O)[C@H](CCCCNC(=O)COCCOCCNC(=O)COCCOCCNC(=O)CC[C@H](NC(=O)CCCCCCCCCCCCCCCCC(=O)O)C(=O)O)NC(=O)[C@H](CO)NC(=O)[C@H](Cc1ccc(O)cc1)NC(=O)[C@H](CC(=O)O)NC(=O)[C@H](CO)NC(=O)[C@@H](NC(=O)[C@H](Cc1ccccc1)NC(=O)[C@@H](N)[C@@H](C)O)[C@@H](C)CC)C(=O)N[C@@H](Cc1c[nH]cn1)C(=O)N[C@@H](CCC(N)=O)C(=O)N[C@@H](CCC(N)=O)C(=O)N[C@@H](CC(=O)O)C(=O)N[C@@H](Cc1ccccc1)C(=O)N[C@H](C(=O)N[C@@H](CC(N)=O)C(=O)N[C@@H](Cc1c[nH]c2ccccc12)C(=O)N[C@@H](CC(C)C)C(=O)N[C@@H](CC(C)C)C(=O)N[C@@H](C)C(=O)N[C@@H](CCC(N)=O)C(=O)N[C@@H](CCCCN)C(=O)NCC(=O)N[C@@H](CCCCN)C(=O)N[C@@H](CCCCN)C(=O)N[C@@H](CC(N)=O)C(=O)N[C@@H](CC(=O)O)C(=O)N[C@@H](Cc1c[nH]c2ccccc12)C(=O)O)C(C)C
B2: AT563 (peptide)
peptide: TFISDYSIAMDKIK([AEEA-AEEA-γGlu-C18 diacid])QQDFVNWLLAQKGKKNDW-OH
modifications: N-terminus assumed
SMILES: CC[C@H](C)[C@H](NC(=O)[C@H](CO)NC(=O)[C@H](Cc1ccc(O)cc1)NC(=O)[C@H](CC(=O)O)NC(=O)[C@H](CO)NC(=O)[C@@H](NC(=O)[C@H](Cc1ccccc1)NC(=O)[C@@H](N)[C@@H](C)O)[C@@H](C)CC)C(=O)N[C@@H](C)C(=O)N[C@@H](CCSC)C(=O)N[C@@H](CC(=O)O)C(=O)N[C@@H](CCCCN)C(=O)N[C@H](C(=O)N[C@@H](CCCCNC(=O)COCCOCCNC(=O)COCCOCCNC(=O)CC[C@H](NC(=O)CCCCCCCCCCCCCCCCC(=O)O)C(=O)O)C(=O)N[C@@H](CCC(N)=O)C(=O)N[C@@H](CCC(N)=O)C(=O)N[C@@H](CC(=O)O)C(=O)N[C@@H](Cc1ccccc1)C(=O)N[C@H](C(=O)N[C@@H](CC(N)=O)C(=O)N[C@@H](Cc1c[nH]c2ccccc12)C(=O)N[C@@H](CC(C)C)C(=O)N[C@@H](CC(C)C)C(=O)N[C@@H](C)C(=O)N[C@@H](CCC(N)=O)C(=O)N[C@@H](CCCCN)C(=O)NCC(=O)N[C@@H](CCCCN)C(=O)N[C@@H](CCCCN)C(=O)N[C@@H](CC(N)=O)C(=O)N[C@@H](CC(=O)O)C(=O)N[C@@H](Cc1c[nH]c2ccccc12)C(=O)O)C(C)C)[C@@H](C)CC
B3: AT586 (peptide)
peptide: EGTFISDYSIAMDKK([AEEA-AEEA-γGlu-C18 diacid])HQQDFVNWLLAQKPSSGAPPPS-NH2
modifications: N-terminus assumed
SMILES: CC[C@H](C)[C@H](NC(=O)[C@H](CO)NC(=O)[C@H](Cc1ccc(O)cc1)NC(=O)[C@H](CC(=O)O)NC(=O)[C@H](CO)NC(=O)[C@@H](NC(=O)[C@H](Cc1ccccc1)NC(=O)[C@@H](NC(=O)CNC(=O)[C@@H](N)CCC(=O)O)[C@@H](C)O)[C@@H](C)CC)C(=O)N[C@@H](C)C(=O)N[C@@H](CCSC)C(=O)N[C@@H](CC(=O)O)C(=O)N[C@@H](CCCCN)C(=O)N[C@@H](CCCCNC(=O)COCCOCCNC(=O)COCCOCCNC(=O)CC[C@H](NC(=O)CCCCCCCCCCCCCCCCC(=O)O)C(=O)O)C(=O)N[C@@H](Cc1c[nH]cn1)C(=O)N[C@@H](CCC(N)=O)C(=O)N[C@@H](CCC(N)=O)C(=O)N[C@@H](CC(=O)O)C(=O)N[C@@H](Cc1ccccc1)C(=O)N[C@H](C(=O)N[C@@H](CC(N)=O)C(=O)N[C@@H](Cc1c[nH]c2ccccc12)C(=O)N[C@@H](CC(C)C)C(=O)N[C@@H](CC(C)C)C(=O)N[C@@H](C)C(=O)N[C@@H](CCC(N)=O)C(=O)N[C@@H](CCCCN)C(=O)N1CCC[C@H]1C(=O)N[C@@H](CO)C(=O)N[C@@H](CO)C(=O)NCC(=O)N[C@@H](C)C(=O)N1CCC[C@H]1C(=O)N1CCC[C@H]1C(=O)N1CCC[C@H]1C(=O)N[C@@H](CO)C(N)=O)C(C)C
B4: AT587 (peptide)
peptide: EGTFISDYSIAMDKIK([AEEA-AEEA-γGlu-C18 diacid])QQDFVNWLLAQKPSSGAPPPS-NH2
modifications: N-terminus assumed
SMILES: CC[C@H](C)[C@H](NC(=O)[C@H](CO)NC(=O)[C@H](Cc1ccc(O)cc1)NC(=O)[C@H](CC(=O)O)NC(=O)[C@H](CO)NC(=O)[C@@H](NC(=O)[C@H](Cc1ccccc1)NC(=O)[C@@H](NC(=O)CNC(=O)[C@@H](N)CCC(=O)O)[C@@H](C)O)[C@@H](C)CC)C(=O)N[C@@H](C)C(=O)N[C@@H](CCSC)C(=O)N[C@@H](CC(=O)O)C(=O)N[C@@H](CCCCN)C(=O)N[C@H](C(=O)N[C@@H](CCCCNC(=O)COCCOCCNC(=O)COCCOCCNC(=O)CC[C@H](NC(=O)CCCCCCCCCCCCCCCCC(=O)O)C(=O)O)C(=O)N[C@@H](CCC(N)=O)C(=O)N[C@@H](CCC(N)=O)C(=O)N[C@@H](CC(=O)O)C(=O)N[C@@H](Cc1ccccc1)C(=O)N[C@H](C(=O)N[C@@H](CC(N)=O)C(=O)N[C@@H](Cc1c[nH]c2ccccc12)C(=O)N[C@@H](CC(C)C)C(=O)N[C@@H](CC(C)C)C(=O)N[C@@H](C)C(=O)N[C@@H](CCC(N)=O)C(=O)N[C@@H](CCCCN)C(=O)N1CCC[C@H]1C(=O)N[C@@H](CO)C(=O)N[C@@H](CO)C(=O)NCC(=O)N[C@@H](C)C(=O)N1CCC[C@H]1C(=O)N1CCC[C@H]1C(=O)N1CCC[C@H]1C(=O)N[C@@H](CO)C(N)=O)C(C)C)[C@@H](C)CC
B5: AT588 (peptide)
peptide: EGTFISDYSIAMDKIK([AEEA-AEEA-γGlu-C18 diacid])QQDFVNWLLAQKGPSSGAPPPS-NH2
modifications: N-terminus assumed
SMILES: CC[C@H](C)[C@H](NC(=O)[C@H](CO)NC(=O)[C@H](Cc1ccc(O)cc1)NC(=O)[C@H](CC(=O)O)NC(=O)[C@H](CO)NC(=O)[C@@H](NC(=O)[C@H](Cc1ccccc1)NC(=O)[C@@H](NC(=O)CNC(=O)[C@@H](N)CCC(=O)O)[C@@H](C)O)[C@@H](C)CC)C(=O)N[C@@H](C)C(=O)N[C@@H](CCSC)C(=O)N[C@@H](CC(=O)O)C(=O)N[C@@H](CCCCN)C(=O)N[C@H](C(=O)N[C@@H](CCCCNC(=O)COCCOCCNC(=O)COCCOCCNC(=O)CC[C@H](NC(=O)CCCCCCCCCCCCCCCCC(=O)O)C(=O)O)C(=O)N[C@@H](CCC(N)=O)C(=O)N[C@@H](CCC(N)=O)C(=O)N[C@@H](CC(=O)O)C(=O)N[C@@H](Cc1ccccc1)C(=O)N[C@H](C(=O)N[C@@H](CC(N)=O)C(=O)N[C@@H](Cc1c[nH]c2ccccc12)C(=O)N[C@@H](CC(C)C)C(=O)N[C@@H](CC(C)C)C(=O)N[C@@H](C)C(=O)N[C@@H](CCC(N)=O)C(=O)N[C@@H](CCCCN)C(=O)NCC(=O)N1CCC[C@H]1C(=O)N[C@@H](CO)C(=O)N[C@@H](CO)C(=O)NCC(=O)N[C@@H](C)C(=O)N1CCC[C@H]1C(=O)N1CCC[C@H]1C(=O)N1CCC[C@H]1C(=O)N[C@@H](CO)C(N)=O)C(C)C)[C@@H](C)CC
B6: AT589 (peptide)
peptide: EGTFISDYSIAMDKIK([AEEA-AEEA-γGlu-C18 diacid])QQDFVNWLLAQKGPSSGAPPPS
B7: AT590 (peptide)
peptide: EGTFISDYSIAMDKIK([AEEA-AEEA-γGlu-C18 diacid])QQDFVNWLLAQGPSSGAPPPS-NH2
modifications: N-terminus assumed
SMILES: CC[C@H](C)[C@H](NC(=O)[C@H](CO)NC(=O)[C@H](Cc1ccc(O)cc1)NC(=O)[C@H](CC(=O)O)NC(=O)[C@H](CO)NC(=O)[C@@H](NC(=O)[C@H](Cc1ccccc1)NC(=O)[C@@H](NC(=O)CNC(=O)[C@@H](N)CCC(=O)O)[C@@H](C)O)[C@@H](C)CC)C(=O)N[C@@H](C)C(=O)N[C@@H](CCSC)C(=O)N[C@@H](CC(=O)O)C(=O)N[C@@H](CCCCN)C(=O)N[C@H](C(=O)N[C@@H](CCCCNC(=O)COCCOCCNC(=O)COCCOCCNC(=O)CC[C@H](NC(=O)CCCCCCCCCCCCCCCCC(=O)O)C(=O)O)C(=O)N[C@@H](CCC(N)=O)C(=O)N[C@@H](CCC(N)=O)C(=O)N[C@@H](CC(=O)O)C(=O)N[C@@H](Cc1ccccc1)C(=O)N[C@H](C(=O)N[C@@H](CC(N)=O)C(=O)N[C@@H](Cc1c[nH]c2ccccc12)C(=O)N[C@@H](CC(C)C)C(=O)N[C@@H](CC(C)C)C(=O)N[C@@H](C)C(=O)N[C@@H](CCC(N)=O)C(=O)NCC(=O)N1CCC[C@H]1C(=O)N[C@@H](CO)C(=O)N[C@@H](CO)C(=O)NCC(=O)N[C@@H](C)C(=O)N1CCC[C@H]1C(=O)N1CCC[C@H]1C(=O)N1CCC[C@H]1C(=O)N[C@@H](CO)C(N)=O)C(C)C)[C@@H](C)CC

target: T1, human GIP receptor (human, UniProt P48546 22-466); experiment: cell-based or functional assay
T1 sequence (looked up): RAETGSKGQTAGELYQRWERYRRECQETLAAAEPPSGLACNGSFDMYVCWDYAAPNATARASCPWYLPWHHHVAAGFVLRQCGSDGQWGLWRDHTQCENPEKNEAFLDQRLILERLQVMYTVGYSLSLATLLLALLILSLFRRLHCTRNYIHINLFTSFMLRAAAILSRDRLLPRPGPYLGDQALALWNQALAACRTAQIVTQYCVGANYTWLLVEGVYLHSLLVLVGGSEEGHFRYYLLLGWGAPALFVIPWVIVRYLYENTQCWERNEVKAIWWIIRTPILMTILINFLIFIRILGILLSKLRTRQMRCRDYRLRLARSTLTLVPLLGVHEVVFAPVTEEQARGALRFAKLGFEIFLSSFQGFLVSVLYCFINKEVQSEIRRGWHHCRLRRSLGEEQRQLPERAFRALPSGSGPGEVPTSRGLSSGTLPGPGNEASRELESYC

Binder	cAMP agonism % Emax [%]	cAMP antagonism [nM]	cAMP antagonism % inhib [%]	cAMP antagonism pIC50
B1	0	3.98	82	8.4
B2	0	4.64	80	8.3
B3	0	25.1	80	7.6
B4	0	3.98	90	8.4
B5	0	23.3	97	7.6
B6	0	5.84	95	8.2
B7	0	5.41	93	8.3
